This is an account of results in patent US20040091468, “Novel transcriptional mediators of blood vessel development and endothelial differentiation” (published 2004).

For data set [1], the target named is T1, cELF-1 (Gallus gallus).
T1 chain: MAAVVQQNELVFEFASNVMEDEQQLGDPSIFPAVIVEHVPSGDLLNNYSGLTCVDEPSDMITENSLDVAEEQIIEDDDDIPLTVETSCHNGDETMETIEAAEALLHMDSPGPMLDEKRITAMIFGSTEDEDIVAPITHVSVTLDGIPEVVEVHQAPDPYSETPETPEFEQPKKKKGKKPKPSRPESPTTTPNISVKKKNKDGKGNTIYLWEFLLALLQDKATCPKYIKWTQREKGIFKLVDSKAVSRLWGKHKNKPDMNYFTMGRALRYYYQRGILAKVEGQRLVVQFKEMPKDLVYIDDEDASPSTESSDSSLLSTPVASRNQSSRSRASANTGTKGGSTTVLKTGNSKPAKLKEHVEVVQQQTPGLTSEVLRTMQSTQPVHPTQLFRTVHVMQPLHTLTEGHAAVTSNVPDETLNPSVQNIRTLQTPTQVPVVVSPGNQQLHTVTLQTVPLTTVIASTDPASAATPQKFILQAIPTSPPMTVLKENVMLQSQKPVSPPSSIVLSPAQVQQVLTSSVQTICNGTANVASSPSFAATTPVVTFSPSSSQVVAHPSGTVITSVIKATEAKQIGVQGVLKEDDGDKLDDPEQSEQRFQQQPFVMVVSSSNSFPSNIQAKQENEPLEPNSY
In words: competition; 5 or 50 ng cold competitor vs Tie1 P2 probe; competes as well as wild type. As to conditions: tags: none (TNT reticulocyte lysate). How it is done: (§1) The ability of cELF-1 to bind to conserved Ets sites in the Tie1 promoter was examined. There are two Ets site doublets, P1 and P2 that are highly conserved in this promoter. The ability of cELF-1 to bind to these Ets sites was tested. As is shown in FIG. 8C, cELF-1 binds well to both of these Ets sites. […] When both of the Ets site were mutated (Mut 1,2) the oligonucleotides were unable to compete for binding. When the first Ets site was mutated, Mut 1, it competed only weakly with binding of cELF-1 to the Tie1 P2 probe.
(§2) Briefly, 20-μL samples containing 2 μL of in vitro-translated products or cell extracts were incubated with a solution containing ³²P-labeleddouble-stranded probes (30 000 cpm). Samples were incubated in the presence or absence of increasing amounts of cold competitor (5 or 50 ng) for 15 to 20 minutes at room temperature and run on a 4% polyacrylamide gel (acrylamide-bisacrylamide, 29:1) containing a buffer of 0.25×TBE (22.5 mmol/L Tris borate and 0.5 mmol/L EDTA).

In data set [2] the target is T1, cELF-1. As to the kind of experiment: competition; 5 or 50 ng cold competitor vs Tie1 P2 probe; unable to compete. Conditions: tags: none (TNT reticulocyte lysate). How it is done:
as §1, §2

Data set [3] has as its target T1, cELF-1. In words: EMSA; anti-ELF-1 antibody interferes and supershifts; room temperature. As to conditions: tags: none (TNT reticulocyte lysate); label: 32P. Here is the method:
The ability of in vitro translated human ELF-1 and cELF-1 to bind to the same Tie2 Ets sites was also examined. As is shown in FIG. 8A, both human and chicken ELF-1 form similar DNA-protein complexes with the Tie2 Ets sites (lane 2 and 3). The ability of an ELF-1 specific antibody to interfere with the formation of these complexes was also tested. This antibody was able to interfere with complex formation of both human and chicken ELF-1. […] Because several Ets factors may potentially bind to the Tie2 Ets site in vivo in the developing chicken we performed gel shift assays with the Tie2 Ets probe and cell extracts from the chicken CAM. As is shown in FIG. 8B, lane 3, a similar size complex is formed compared to the in vitro translated cELF-1.
as §2
(In general: In EMSA bound probe runs differently from free probe, usually more slowly.)

Data set [4] deals with T1, cELF-1. As to the kind of experiment: EMSA; binds well; room temperature. Conditions: tags: none (TNT reticulocyte lysate); label: 32P. How it is done: as §1, §2
The target of data set [5] is T1, cELF-1. In words: EMSA; binds well; wild type cold oligo competes. Conditions: tags: none (TNT reticulocyte lysate); label: 32P. How it is done: as §1, §2

B1: Tie1 P2 Mut2 (dsDNA)
DNA 1: CCATCATTTCCTCTTAATCCCCAG
DNA 2: CTGGGGATTAAGAGGAAATGATGG
Consider B1, for which the binding result with cELF-1 [1] is “binds”.

B2: Tie1 P2 Mut1,2 (dsDNA)
DNA 1: CCATCATTTAATCTTAATCCCCAG
DNA 2: CTGGGGATTAAGATTAAATGATGG
Consider B2, for which, in the data set with cELF-1 [2], the binding result is “no binding”.

B3: Tie2 promoter Ets oligonucleotide (dsDNA)
DNA 1: TGCAAAGGAAACAGGAAAAAGGAACTTAAC
DNA 2: GTTAAGTTCCTTTTTCCTGTTTCCTTTGCA
For B3, the binding result in the data set with cELF-1 [3] is on record as “binds”.

B4: Tie1 P1 (dsDNA)
DNA 1: ACTGGCTTCCTCCCTTTCCTGTCTC
DNA 2: GAGACAGGAAAGGGAGGAAGCCAGT
Consider B4, for which the binding result with cELF-1 [4] is “binds”.

B5: Tie1 P2 (dsDNA)
DNA 1: CCATCATTTCCTCTTCCTCCCCAG
DNA 2: CTGGGGAGGAAGAGGAAATGATGG
Regarding B5, the binding result with cELF-1 [5] was “binds”.
